Transfection efficiency (percent of cells stained) and positive rate of CD7+ data for one substance are collected here from patent publication US20170226204A1.

In assay [1] the target is human CD7 molecule (human) (UniProt P09564). The experiment in a line: flow cytometry on H460 cells transfected with pcDNA3.1-CD7. On the technique in general: In flow cytometry, cells or beads pass a laser one at a time.
Assay [2] shares this target. The experiment in a line: flow cytometry on CD7-positive Jurkat cells.
For assay [3] the target is unchanged. The experiment in a line: flow cytometry on H460 cells transfected with pcDNA3.1-CD7. This is another data set of the same source.

Like-named read-outs stand apart in the source and are kept apart here.

Sequence of human CD7 molecule (human) (P09564 26-240): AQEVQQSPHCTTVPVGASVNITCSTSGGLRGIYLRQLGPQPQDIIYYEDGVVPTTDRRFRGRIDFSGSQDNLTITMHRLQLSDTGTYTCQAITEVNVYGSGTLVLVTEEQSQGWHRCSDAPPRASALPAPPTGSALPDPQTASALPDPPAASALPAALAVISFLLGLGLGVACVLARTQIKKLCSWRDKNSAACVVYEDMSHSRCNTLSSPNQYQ

For commercial CD7 antibody (BD CD7-PE), the transfection efficiency (percent of cells stained) in assay [1] was 18%; in assay [3] it was 18.8%. This substance yielded a positive rate of CD7+ in assay [2] of 96.6%.
